# B1: SEMA3F: Human recombinant full-length His-Myc-tagged SEMA3F, secreted by transfected 293T cells and purified; class 3 semaphorin, NRP-2 ligand (protein, listed as Homo sapiens)
# chain: MLVAGLLLWASLLTGAWPSFPTQDHLPATPRVRLSFKELKATGTAHFFNFLLNTTDYRILLKDEDHDRMYVGSKDYVLSLDLHDINREPLIIHWAASPQRIEECVLSGKDVNGECGNFVRLIQPWNRTHLYVCGTGAYNPMCTYVNRGRRAQATPWTQTQAVRGRGSRATDGALRPMPTAPRQDYIFYLEPERLESGKGKCPYDPKLDTASALINEELYAGVYIDFMGTDAAIFRTLGKQTAMRTDQYNSRWLNDPSFIHAELIPDSAERNDDKLYFFFRERSAEAPQSPAVYARIGRICLNDDGGHCCLVNKWSTFLKARLVCSVPGEDGIETHFDELQDVFVQQTQDVRNPVIYAVFTSSGSVFRGSAVCVYSMADIRMVFNGPFAHKEGPNYQWMPFSGKMPYPRPGTCPGGTFTPSMKSTKDYPDEVINFMRSHPLMYQAVYPLQRRPLVVRTGAPYRLTTIAVDQVDAADGRYEVLFLGTDRGTVQKVIVLPKDDQELEELMLEEVEVFKDPAPVKTMTISSKRQQLYVASAVGVTHLSLHRCQAYGAACADCCLARDPYCAWDGQACSRYTASSKRRSRRQDVRHGNPIRQCRGFNSNANKNAVESVQYGVAGSAAFLECQPRSPQATVKWLFQRDPGDRRREIRAEDRFLRTEQGLLLRALQLSDRGLYSCTATENNFKHVVTRVQLHVLGRDAVHAALFPPLSMSAPPPPGAGPPTPPYQELAQLLAQPEVGLIHQYCQGYWRHVPPSPREAPGAPRSPEPQDQKKPRNRRHHPPDT
# modifications: His-Myc tag
# notes: Human recombinant full-length His-Myc-tagged SEMA3F, secreted by transfected 293T cells and purified; class 3 semaphorin, NRP-2 ligand
# Columns and labels:
# U87MG cells = experiment: Western blot of PI-3K/Akt-mTOR and MAPK signaling in U87MG cells; format: cell-based, human
# Description: U87MG which express NRP-2 were used for this assay.
# To determine the effect of SEMA3F on intracellular signaling responses, levels of phosphokinases in the NRP2-expressing human glioblastoma cell line U87MG were profiled.
# Western blotting: Proteins within each sample were separated by SDS-PAGE and transferred to nitrocellulose membranes. The membranes were blocked with 4% skimmed milk in TBS-T (0.1% Tween 20 in tris-buffered saline [TBS]) for 30 minutes, followed by incubation with the primary antibody. After washing with TBS-T, membranes were incubated with the appropriate horseradish peroxidase-conjugated secondary antibody, and immunoreactivity was detected by using ECL detection reagents.
# [1] = test system: U251 glioblastoma cells, a melanocyte cell line, Jurkat T lymphocytes, and endothelial cells; experiment: Western blot in other cell lines expressing NRP2; format: cell-based, human; details: SEMA3F 30 minutes
# Description: FIGS. 34A-34D depict analysis of intracellular signaling pathway regulated by SEMA3F. FIG. 34A depicts a Western blot of the expression of pAkt, pmTOR and pS6K in U87MG cells treated with SEMA3F or PBS for 60 minutes and. FIG. 34B depicts a Western blot. U87MG cells were transfected with control or Plexin A1-specific siRNA (20 nM). After 48 hours, cells were treated with SEMA3F (640 ng/ml) for 30 and 60 minutes, and were analyzed by Western blot. FIG. 34C depicts NRP2 and Plexin A1 expression analyzed by Western blot with multiple cell lines. FIG. 34D depicts a Western blot of multiple NRP2-expressing cell lines were treated with SEMA3F for 30 minutes. All data presented are representative of 3 independent experiments.
# SEMA3F inhibits Akt, mTOR, and S6K phosphorylation. To determine the effect of SEMA3F on intracellular signaling responses, levels of phosphokinases in the NRP2-expressing human glioblastoma cell line U87MG were profiled.
# Western blotting: Proteins within each sample were separated by SDS-PAGE and transferred to nitrocellulose membranes. […] After washing with TBS-T, membranes were incubated with the appropriate horseradish peroxidase-conjugated secondary antibody, and immunoreactivity was detected by using ECL detection reagents.
# [2] = U87MG cells, 640 ng/ml time course
molecule,measurement,setting,value
B1,pSGK1 (S422) and pPKC (S657),U87MG cells; U87MG cells,inhibited
same,pS6K and pS6 in 2DAkt transfected cells,"U87MG cells; U87MG cells transfected with constitutively active Akt (2DAkt), SEMA3F 640 ng/ml",no change in expression
same,persistence of inhibitory effect,U87MG cells; [2],greater than 60 minutes
same,"time within which pAkt (T308 and S473), pmTOR, pS6K and pS6 were inhibited",U87MG cells; [2],10-20 minutes
same,pAkt (S473) in 2DAkt transfectants,"U87MG cells; U87MG cells, SEMA3F 640 ng/ml",reduced the level of pAkt (S473)
same,pAkt (T308 and S473) and pS6K,"U87MG cells; U87MG cells, SEMA3F 640 ng/ml for 60 minutes vs untreated",reduced levels of pAkt (T308 and S473) and pS6K
same,inhibition of expression of pAkt (S473) (densitometry),"U87MG cells; U87MG cells, SEMA3F ~640 ng/mL, after 10 min",> 80%
same,pAkt and pS6K after rapamycin pretreatment,"U87MG cells; U87MG cells, rapamycin 30 minutes, then SEMA3F and rapamycin for 60 minutes",reduced levels of both pAkt and pS6K
same,"pAkt, pS6K and pS6 in NRP2 and Plexin A1-siRNA transfected cells","U87MG cells; U87MG cells, siRNA 20 nM, SEMA3F 640 ng/ml",failed to inhibit
same,concentration at which peak effects were observed,"U87MG cells; U87MG cells, signaling",~600 ng/mL
same,expression of pERK1/2,"U87MG cells; U87MG cells, ~640 ng/mL",markedly reduced
same,time of peak effect on pERK1/2,"U87MG cells; U87MG cells, ~640 ng/mL",≤ 30 mins
same,"pAkt (S473), pAkt (T308), pmTOR and pS6K","U87MG cells; U87MG cells, ~640 ng/mL, by 30 min",most significant reduction
same,pAkt and pS6K signaling at the lowest concentration,"U87MG cells; U87MG, SEMA3F 200 ng/ml, 30 minutes",inhibits pAkt and pS6K signaling
same,Akt (S473) and S6K phosphorylation,[1],inhibited

# Source: US12397037B2, “Methods and compositions for immunomodulation” (CHILDREN'S MEDICAL CENTER CORPORATION, priority 2014, dated 2025)
